Results as given in article PMC9365860 (Cell Reports, 2022).
Like-named read-outs stand apart in the source and are kept apart here.

B1: P008_60 IgG (antibody, V domains shown)
VH: EVQLVESGGGVVQPGRSLRLTCAASGFIFSSYGMHWVRQAPGKGLEWVAVISYDGSYKYYADSVKGRFTISRDNSKNTLYLQMNSLRAEDTAVYYCTKADYYDFWSGYQKTYYYYMDVWGKGTTVTISS
VL: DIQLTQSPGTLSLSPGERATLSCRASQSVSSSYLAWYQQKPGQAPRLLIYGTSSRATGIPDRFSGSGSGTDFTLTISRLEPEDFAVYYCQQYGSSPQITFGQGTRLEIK
notes: also called mAb P008_60; P008_060; source: HEK-293F, co-transfected heavy and light plasmids, purified (protein G)
B2: VA14_47 (antibody, V domains shown)
VH: EVQLVESGGGVVQPGRSLRLSCGGSGFTFSSHAMHWVRQAPGKGLEWVAVISYDGSYQYYADSVKGRFTISRDNSKNALYLQMNSLRVEDTAIYYCARDTPDLETYYFDCWGQGTLVTVSS
VL: EIVMTQSPGTLSLSPGERATLSCRASQSVSSSYLAWYQQKPGQAPRLLIYSACSRATGIPDRFSGSGSGTDFTLTISRLEPEDFAVYYCQQYGDSPRGSFGQGTKVDIK

Legend:
[1] = target: T1, Recombinant S1 Wuhan (residues 1–674) (SARS-CoV-2, UniProt P0DTC2); assay: ELISA; conditions: both partners purified
T1 construct: source: bought: Native Antigen Company

[2] = target: T2, Full-length SARS-CoV-1 Spike on HEK 293T cells (SARS-CoV-1 (SARS-CoV), isolate not …, UniProt P59594); assay: flow cytometry on cells; conditions: one partner purified
T2 construct: source: HEK293T, transfected (pcDNA3.1+), on the cell surface

[3] = target: T3, Full-length 229E Spike on HEK 293T cells (human coronavirus 229E, isolate not …, UniProt P15423); assay: flow cytometry on cells; conditions: one partner purified
T3 construct: source: HEK293T, transfected (pcDNA3.1+), on the cell surface

[4] = target: T4, Full-length MERS Spike on HEK 293T cells (MERS-CoV, isolate  (entry: …, UniProt K9N5Q8)); assay: flow cytometry on cells; conditions: one partner purified
T4 construct: source: HEK293T, transfected (pcDNA3.1+), on the cell surface

[5] = target: T5, Full-length OC43 Spike on HEK 293T cells (human coronavirus OC43, isolate not …, UniProt P36334); assay: flow cytometry on cells; conditions: one partner purified
T5 construct: source: HEK293T, transfected (pcDNA3.1+), on the cell surface

[6] = target: T6, Full-length NL63 Spike on HEK 293T cells (human coronavirus NL63, isolate not …, UniProt Q6Q1S2); assay: flow cytometry on cells; conditions: one partner purified
T6 construct: source: HEK293T, transfected (pcDNA3.1+), on the cell surface

[7] = target: T7, Full-length SARS-CoV-2 Spike on HEK 293T cells (SARS-CoV-2, UniProt P0DTC2); assay: flow cytometry on cells; conditions: one partner purified
T7 construct: source: HEK293T, transfected (pcDNA3.1+), on the cell surface

[8] = target: T2, Full-length SARS-CoV-1 Spike on HEK …
[9] = target: Recombinant stabilized SARS-CoV-2 spike for ELISA (Wuhan) (SARS-CoV-2, Wuhan, UniProt P0DTC2, stabilised)
[10] = target: T1, Recombinant S1 Wuhan (residues 1–674)
[11] = target: T7, Full-length SARS-CoV-2 Spike on HEK …

Row | Binder | binding result [1] | binding result [2] | binding result [3] | binding result [4] | binding result [5] | binding result [6] | binding result [7] | binding result [8] | binding result [9] | binding result [10] | binding result [11]
1 | B1 | binds | binds | no binding (tested: 25 μg/mL) | no binding (tested: 25 μg/mL) | no binding (tested: 25 μg/mL) | no binding (tested: 25 μg/mL) | binds |  |  |  | 
2 | B2 |  |  |  |  |  |  |  | binds | binds | binds | binds
